B1: Apobec3G-GFP MAPPIT bait (pCEL-Apobec3G-GFP) [human] / Apobec3G MAPPIT prey (pMG2-Apobec3G) [human] (parent)
chain 1: MKPHFRNTVERMYRDTFSYNFYNRPILSRRNTVWLCYEVKTKGPSRPPLDAKIFRGQVYSELKYHPEMRFFHWFSKWRKLHRDQEYEVTWYISWSPCTKCTRDMATFLAEDPKVTLTIFVARLYYFWDPDYQEALRSLCQKRDGPRATMKIMNYDEFQHCWSKFVYSQRELFEPWNNLPKYYILLHIMLGEILRHSMDPPTFTFNFNNEPWVRGRHETYLCYEVERMHNDTWVLLNQRRGFLCNQAPHKHGFLEGRHAELCFLDVIPFWKLDLDQDYRVTCFTSWSPCFSCAQEMAKFISKNKHVSLCIFTARIYDDQGRCQEGLRTLAEAGAKISIMTYSEFKHCWDTFVDHQGCPFQPWDGLDEHSQDLSGRLRAILQNQEN
chain 2: B1 chain 1

Variants of: B1
Experiment: MAPPIT
Details: with Apobec3G MAPPIT prey (pMG2-Apobec3G) [human]

First: chain 1 R78W
Second: chain 1 K270E
The percent of parent of the first is lower: 18 % of WT for the first, 54 % of WT for the second.

First: chain 1 R30L
Second: chain 1 E191V
The percent of parent of the first is lower: 10 % of WT for the first, 40 % of WT for the second.

Compared with chain 1 W269G, chain 1 W175R is lower in percent of parent: 68 % of WT for the first, 28 % of WT for the second.

First: chain 1 Y222N
Second: chain 1 R24G
The percent of parent of the first is higher: 7 % of WT for the first, 5 % of WT for the second.

First: chain 1 D128G
Second: chain 1 K63R
The percent of parent of the first is higher: 47 % of WT for the first, 5 % of WT for the second.

For chain 1 W94R, the percent of parent was 14 % of WT.
